Results taken from patent US20050054822A1 (published 2005).

Biological target: T1, human MARCO (macrophage receptor with a collagenous structure) (human, UniProt Q9UEW3 1-520)
T1 construct: also called HIN-2 receptor
T1 sequence: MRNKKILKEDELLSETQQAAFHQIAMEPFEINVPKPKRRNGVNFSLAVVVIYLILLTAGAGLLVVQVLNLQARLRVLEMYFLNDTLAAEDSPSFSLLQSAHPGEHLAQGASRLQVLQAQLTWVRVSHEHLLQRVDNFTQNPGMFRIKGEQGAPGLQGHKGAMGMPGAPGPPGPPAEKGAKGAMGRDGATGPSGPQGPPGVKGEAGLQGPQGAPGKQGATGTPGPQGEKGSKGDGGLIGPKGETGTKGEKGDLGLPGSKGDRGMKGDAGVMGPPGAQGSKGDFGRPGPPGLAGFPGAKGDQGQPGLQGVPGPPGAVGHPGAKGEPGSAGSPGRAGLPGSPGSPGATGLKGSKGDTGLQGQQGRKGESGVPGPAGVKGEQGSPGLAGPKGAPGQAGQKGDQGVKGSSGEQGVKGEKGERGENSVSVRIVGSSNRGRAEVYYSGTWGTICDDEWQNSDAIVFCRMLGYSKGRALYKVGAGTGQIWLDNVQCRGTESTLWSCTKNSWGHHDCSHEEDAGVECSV
Assay: staining of retrovirally transduced U937 cells with FLAG-HIN-2
Excerpt: cDNA for both MARCO and SP-C were subcloned into the MSCV-IRES retroviral vector, which contains an IRES element followed by the gene encoding green fluorescent protein (GFP). Briefly, for MARCO, full length cDNA fragment encoding MARCO was amplified by PCR from the single MARCO expression cell clone cDNA with two primers from the human lung retroviral cDNA library (Strategene). The amplified cDNA fragment was digested with Sal I and Not I and cloned into the Xho I and Not I site of MSCV-GFP plasmid and PRK plasmids to make MSCV-MARCO and PRK-MARCO. SP-C cDNA was similarly prepared. Viruses were produced and used to infect U937 cells, and the infected cells were stained with FLAG-HIN-2. The FLAG-HIN-2 specifically stained the U937 cell line transduced with retroviruses encoding the MARCO, but no staining was detected on uninfected, MSCV-empty vector infected, or SP-C infected cells (data not shown).

binding result: binds
B1: FLAG-HIN-2 (mature human HIN-2 with a carboxy-terminal Flag tag, secreted from 293 cells) (ligand)
chain: FLINKVPLPVDKLAPLPLDNILPFMDPLKLLLKTLGISVEHLVEGLRKCVNELGPEASEAVKKLLEALSHLV
notes: also called HIN-2-FLAG; UGRP1; not shown: C-terminal Flag tag from the PRK-C-FLAG vector; The tagged mature protein is stated to be 86 amino acids, so 14 residues
